T1: Boi1 SH3 (BOI1_YEAST), P38041
T1 chain: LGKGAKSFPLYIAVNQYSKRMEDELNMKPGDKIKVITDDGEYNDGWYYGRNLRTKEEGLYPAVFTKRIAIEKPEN

T2: Boi2 SH3 (BOI2_YEAST), P39969
T2 chain: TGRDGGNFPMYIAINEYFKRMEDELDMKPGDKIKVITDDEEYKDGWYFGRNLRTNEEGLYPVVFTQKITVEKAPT

T3: Rvs167 SH3 (RV167_YEAST), P39743
T3 chain: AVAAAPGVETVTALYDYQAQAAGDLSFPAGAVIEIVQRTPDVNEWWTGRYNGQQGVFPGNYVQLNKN

T4: Yfr024 SH3 (LSB3_YEAST), P43603
T4 chain: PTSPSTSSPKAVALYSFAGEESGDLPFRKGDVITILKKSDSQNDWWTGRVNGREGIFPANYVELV

T5: Yhr016c SH3 (YSC84_YEAST), P32793
T5 chain: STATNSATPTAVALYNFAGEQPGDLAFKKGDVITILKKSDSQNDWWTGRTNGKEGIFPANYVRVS

B1: YGR170W 91-104 (peptide)
chain: GAPPTTPSRPRTTT
B2: YEL056W 193-206 (peptide)
chain: GGDPTKPVRTWNDL
B3: YPL084W 731-744 (peptide)
chain: GGPPLLPQKSAAFQ
B4: YBR108W 379-392 (peptide)
chain: GGQPPVPVRMQPQP
B5: YNR031C 1516-1529 (peptide)
chain: GHTPQFPTKDEVSS
B6: YPL025C 36-49 (peptide)
chain: GIHPGFPIRMVQYA
B7: YPL105C 573-586 (peptide)
chain: GIKPQQPIKVDIKG
B8: YPL085W 915-928 (peptide)
chain: GILPLAPLRPLDPL
B9: YEL050C 256-269 (peptide)
chain: GITPVGPGKFSRSA

Assays:
Assay in all cases: SPOT array
[1] = molecular target: T1, Boi1 SH3 (BOI1_YEAST), P38041
[2] = molecular target: T2, Boi2 SH3 (BOI2_YEAST), P39969
[3] = molecular target: T3, Rvs167 SH3 (RV167_YEAST), P39743
[4] = molecular target: T4, Yfr024 SH3 (LSB3_YEAST), P43603
[5] = molecular target: T5, Yhr016c SH3 (YSC84_YEAST), P32793

| Binder | normalised SPOT signal, Boehringer light units (BLU); mean over the file's lines of this peptide [1] | normalised SPOT signal, Boehringer light units (BLU); mean over the file's lines of this peptide [2] | normalised SPOT signal, Boehringer light units (BLU); mean over the file's lines of this peptide [3] | normalised SPOT signal, Boehringer light units (BLU); mean over the file's lines of this peptide [4] | normalised SPOT signal, Boehringer light units (BLU); mean over the file's lines of this peptide [5] |
| --- | --- | --- | --- | --- | --- |
| B1 | 0 | 78.2 | 366 | 13900 | 9930 |
| B2 | 31.1 | 42.7 | 16.4 | 203 | 170 |
| B3 | 128 | 2 | 28.4 | 7090 | 119 |
| B4 | 85.9 | 89.9 | 794 | 6010 | 1930 |
| B5 | 25.2 | 31.7 | 22.1 | 19.8 | 266 |
| B6 | 69.6 | 114 | 24.6 | 331 | 154 |
| B7 | 115 | 41 | 38.7 | 103 | 153 |
| B8 | 115 | 30.8 | 57.3 | 1660 | 318 |
| B9 | 21.6 | 55.7 | 32.3 | 21.5 | 81.1 |

Reference: publication PMC314469, “Protein Interaction Networks by Proteome Peptide Scanning” (PLoS Biology, 2004)
